# Assay: soluble on expression in E. coli; label from the status in PepcDB or PDB records
row,Sequence,soluble on expression in E. coli
1,AIAENSSKEDYKIQSFDLETQKLLKTALKDPGSVDLEKVSSVIVDQSLKDQVFSREAGRICYTIVQAEAKQTNGSVFRRNLLNRLQQEFKAREETRKRSTQEWVCLVSFICNIFDYLKVNNMPMVALVHPVYDCLFRLAQSDALKNEEEVDCLVLQLHRIGDQLEKMNVQLMDELFNLLRDGFLLQEDLSSMGRLLLLEILEFRAGGWKLSDTAQKYYYSEVTD,soluble
2,MGRKEEDDCSSWKKQTTNIRKTFIFMEVLGSGAFSEVFLVKQRLTGKLFALKCIKKSPAFRDSSLENEIAVLKKIKHENIVTLEDIYESTTHYYLVMQLVSGGELFDRILERGVYTEKDASLVIQQVLSAVKYLHENGIVHRDLKPENLLYLTPEENSKIMITDFGLSKMEQNGIMSTACGTPGYVAPEVLAQKPYSKAVDCWSIGVITYILLCGYPPFYEETESKLFEKIKEGYYEFESPFWDDISESAKDFICHLLEKDPNERYTCEKALSHPWIDGNTALHRDIYPSVSLQIQKNFAKSKWRQAFNAAAVVHHMRKLHMNLHSPGVRPEVENRPPETQASETSRPSSPEITITEAPVLDHSVALPALTQLPCQHGRRPTAPGGRSLNCLVNGSLHISSSLVPMHQGSLAAGPCGCCSSCLNIGSKGKSSYCSEPTLLKKANKKQNFKSEVMVPVKASGSSHCRAGQTGVCLIM,soluble
3,MAHHHHHHMGKGAVHPNGSNFCRAIKYNIVDKMRMLVETNLYDRPRWLEWAERAPPIEIHNISLKSRYNNNKYIDLVKFLLKKYPHLRFQDCYVEGNNNVKGYDFFRNDHIITQMATHQLYYMNRGYGKKDALQKVEKEFYNRRMELEKKQKINMCLSIDKKIKPLYTDGYAYLYEKMADNEKAHLGLILKKLRAMREKLEKEQGGDGAQPHT,not soluble
4,IRDFSYGVKFVLSDSQQKILKYPNEDYNIGTYYKGQKLNNIWGYKTIGIAQSQEEMDAHLAKVDQSALGSKWGAGDIMYADLDGDGKISTGSNKLGDTGDRVILGNSTPRFNYGLTIDASWKGIDFRAFFQGIGKRDYWLQGPYFWGSTGLGQWQAAGFKEHWDFWRPEGDPLGANTNAYYPRVARNGGKNTNVQSRYLQNAAYCRLKNIQIGYTLPKTWTEKAGMSSVRVYVSGDNLLTFSDITGIFDPEAIGSTYDANNGKLYPLQRVISVGLNVNF,not soluble
5,MAHHHHHHGAYDVARVRGLHPSLGDGWVHFDAPAGMLIPDSVATTVSTAFRRSGASTVGAHPSARRSAAVLDAAREAVADLVNADPGGVVLGADRAVLLSLLAEASSSRAGLGYEVIVSRLDDEANIAPWLRAAHRYGAKVKWAEVDIETGELPTWQWESLISKSTRLVAVNSASGTLGGVTDLRAMTKLVHDVGALVVVDHSAAAPYRLLDIRETDADVVTVNAHAWGGPPIGAMVFRDPSVMNSFGSVSTNPYATGPARLEIGVHQFGLLAGVVASIEYLAALDESARGSRRERLAVSMQSADAYLNRVFDYLMVSLRSLPLVMLIGRPEAQIPVVSFAVHKVPADRVVQRLADNGILAIANTGSRVLDVLGVNDVGGAVTVGLAHYSTMAEVDQLVRALASLG,soluble
6,MLTGLLDVPYRKSFALLEELLERREAEEQTLAISTLATQLKMQQNTILQSVALLQTEIEKNGWENLFSLSANAKEITFWFAPYFQLSFLMPYFVKKSFAYQVLTYAFNHNAIDSKHFEKVLEISSSTFTRKIGQLNQWLQKYQIEINLKRTNVLVGKEKDIRIFFMMLFWNNYSEGDWPLHTITKKEVHSLFRRLKHSVSFNTTQDFTKDLIFSAVILARWKEGFFIKETFVEEEAIVNPFVNLSEFELFFKEEALHQVPTKFIQKEGLFAFFLLTISVSYATQDVLEIPAARMHMVQLLGSPIKEIIYQLTSFYQIKLTFHEYLYLYTSIQNLSVFFKTFVTIANPFVQESFLKEALQKIQVSTKM,not soluble
7,PIDLITVGSLIELQDSQNPFQYWIVSVIENVGGRLRLRYVGLEDTESYDQWLFYLDYRLRPVGWCQENKYRMDPPSEIYPLKMASEWKCTLEKSLIDAAKFPLPMEVFKDHADL,soluble
8,FNKIKDSVKQKIDSMGDKGTYGVSASHPLAVEEGMKVLKNGGSAVDAAIVVSYVLGVVELHASGIGGGGGMLIISKDKETFIDYRETTPYFTGNQKPHIGVPGFVAGMEYIHDNYGSLPMGELLQPAINYAEKGFKVDDSLTMRLDLAKPRIYSDKLSIFYPNGEPIETGETLIQTDLARTLKKIQKEGAKGFYEGGVARAISKTAKISLEDIKGYKVEVRKPVKGNYMGYDVYTAPPPFSGVTLLQMLKLAEKKEVYKDVDHTATYMSKMEEISRIAYQDRKKNLGDPNYVNMDPNKMVSDKYISTMKNENGDALSEAEHES,soluble
9,MGSDKIHHHHHHMKFNTTIKRLQEAVNKVILAVPAKSLDARFDNINLTLENGMLTMFATDGELSITTNCDVASTDKGNIAIRARTLQDFLRSMYETDVTFDIERQSIGELGTIHIATDKGRYRIPCTFTTKPESQKRNFDLSIELQQNELQDMIHKTLFACSVDGMRPAMMGVLFEFDEEYITAVSTDGHRLVRCRKKPGVTVAEKQKIVVPARVLSIIQRMLTNEEVKMTIDSERRNVKFKTATMELESALIVEPYPNYEAVIPVENEKQLVTDRSQLHDSVKRVGRFSSIGDLKISAQDSQIKVMAENASEGESAQEELPCTFTGEEITIGFNAKFVEAALSHIETEQVSIEMSSPTTAVLFKPKYEERQDDLIILVMPVRINN,not soluble
10,MTARIYKPAKNAMQSGTAKTREWQLDYEPETPRTIEPLMGWTSSSDMQQQVSLRFHTRDEAVAYCEREGIPYQLIEPKEPVRRRAAYADNFAFRRPEPWTHLEHHHHHH,not soluble
11,MAESSDKLYRVEYAKSGRASCKKCSESIPKDSLRMAIMVQSPMFDGKVPHWYHFSCFWKVGHSIRHPDVEVDGFSELRWDDQQKVKKTAEAGG,soluble
12,MSLSSEVVLMKPYEKLVERFNEMAAEFLSYFPTVKSVGNLESELDKRRFVILFRAMLRLRNEVKGYNEFDAEDLTIEEQRFADYQSKYLDMSNEFAITSEKEDAESILQDIDFELELVHRDIINVMYILALLQDLKPESSSYPKDRKAVLDTMDSNPELRSKIALIDNFIKLHIDGRQSNDLPADMESDLDKYIATQKAIAIEQVATEEGIDSTLLHEYISEYEYLGKPKNEIIKRAIDPLKLSFMDAQSKKKSLIDKMKDIIKLFSWNEGHHHHHH,soluble
13,MTEPWIAFPPEVHSAMLNYGAGVGPMLISATQNGELSAQYAEAASEVEELLGVVASEGWQGQAAEAFVAAYMPFLAWLIQASADCVEMAAQQHVVIEAYTAAVELMPTQVELAANQIKLAVLVATNFFGINTIPIAINEAEYVEMWVRAATTMATYSTVSRSALSAMPHTSPPPLILKSDELLPDTGEDSDEDGHNHGGHSHGGHARMIDNFFAEILRGVSAGRIVWDPVNGTLNGLDYDDYVYPGHAIWWLARGLEFFQDGEQFGELLFTNPTGAFQFLLYVVVVDLPTHIAQIATWLGQYPQLLSAALTGVIAHLGAITGLAGLSGLSAIPSAAIPAVVPELTPVAAAPPMLAVAGVGPAVAAPGMLPASAPAPAAAAGATAAGPTPPATGFGGFPPYLVGGGGPGIGFGSGQSAHAKAAASDSAAAESAAQASARAQARAARRGRSAAKARGHRDEFVTMDMGFDAAAPAPEHQPGARASDCGAGPIGFAGTVRKEAVVKAAGLTTLAGDDFGGGPTMPMMPGTWTHDQGVFDEHR,not soluble
14,MCESKIDRNRIWIVGTNATYPPFEYVDAQGEVVGFDIDLAKAISEKLGKQLEVREFAFDALILNLKKHRIDAILAGMSITPSRQKEIALLPYYGDEVQELMVVSKRSLETPVLPLTQHSSVAVQTGTFQEHYLLSQPGICVRSFDSTLEVIMEVRYGKSPVAVLEPSVGRVVLKDFPNLVATRLELPPECWVLGCGLGVAKDRPEEIQTIQQAITDLKSEGVIQSLTKKWQLSEVAYELEHHHHHH,soluble
15,MIGYLFGNRVLVDDKELPLIEAYYLLDKGELEVYEDDKKLSKEEFLKKCLTYDERFLIRYKAYKELRDKGYTLGTALKFGADFRVYDIGVIPKKGKRSEREHSKWVLYPVSKDETFDFYEFASKNRVAHSTRKKMLMGIVSDKIEFIEVSWKKP,soluble
16,AEGKLNDELAKNKGKIPGLKIDQKIRGQMPERGWTEDDIKNTVSNGATGTSFDKRSPKKTPPDYLGRNDPATVYGSPGKYVVVNDRTGEVTQISDKTDPGWVDDSRIQWGNKNDQ,soluble
17,SQAHVVDFELQYREAIDCPCRTFGVDRSIGQYLHILVCIEKIAVYQLHQIGSVLIGFVDTAFDYQRISRIDVGITYNIFEMPLGIIDPILQKQIMLDRLRP,not soluble
18,LAADQFIVDRPMPEDPYGKTIIAGYHWFSDWGRDTMISLPGLTISTGRPEVARSIIRTFARYVDQGMLPNRFPDAGEQPEYNTVDATLWYFEAVRAYYSATDDDTLLGELFPILADIIDWHCRGTRYNIHLDAADGLLYAGVTGVQLTWMDAKVDDWVVTPRIGKPIEVNALWYNALRTMAKFARHLGKPHQEYEAMADRAKYRFSRFWNDETGYCYDVLDSPNGDDAALRPNQIFAVSLPESPLTPAQQRSVVEVCGRRLLTSHGLRSLAPDHPQYQGKYGGNQYQRDGAYHQGTVWGWLLGPFVLAHLRVYKNPEQARQFLEPMANHLTKHGLGSLSEIFDGDAPMTARGCIAQAWTVAEVLRAWFATES,not soluble
19,QVSLRESGGGLVQPGRSLRLSCTASGFTFRHHGMTWVRQAPGKGLEWVASLSGSGTKTHFADSVKGRFTISRDNSNNTLYLQMDNVRDEDTAIYYCAKAKRVGATGYFDLWGRGTLVTVSSASTKGPSVFPLAPSSKSTSGGTAALGCLVKDYFPEPVTVSWNSGALTSGVHTFPAVLQSSGLYSLSSVVTVPSSSLGTQTYICNVNHKPSNTKVDKKAEP,soluble
20,GMKSAPDWIAHPDTPYLLIDEAKLKSNINYLKQRVESLGSHLRPHLKTLRTLEAAGYLLDSKSAPATVSTLAEAEAYAKAGYTDLLYAVGIAPAKLKRVAALRQQGINLHILLDNITQAQAVVDYAAEFGQDFSVFIEIDSDDHRGGIKPSDSKLLTIAKTLGEHFTGLMTHAGGSYACNTEQGLKNFAKQECDAVRIARNNLETAGIHCAITSVGSTPTAHFGEDFSDISEVRAGVYTTFDLVMKNIGVCDFSHIAMSVVTTVIGHNKEKNWLLTDSGWMALSRDSGTAGQNRDFGYGQVCKIDGSVLDGLCVNSTSQEHGVIELSDAYQLEDFPVGHQLRIMPNHACATAAMHPVYHVLMSDGSHNTWQRITGW,soluble
21,MLTLLGKIAHFREPLSRQLSLSDTNVTPQISRCAKLNLSVKQKKLLRQSFNAMNSGGTFLKLMEKIFRRLETKCPDMRSIFLTTAFVNSLSRERQTPPLVKTEYDHCKCMVGIFERLIENLENINEQLTMIRHYGEKHAQMAESGFTGAMIEQFGEISVFVIGSQDVVKFNHETVKAWRLLLACVTDEMKVGFDRMSRINGRRNSCNPPSTVPSGN,not soluble
22,MGSDKIHHHHHHMPHDDHITALCFNNAESYEKPILVTASRDGHFKVWILTDDSDIYKKAIAWTCDFVGSYHKYQATNCCFSEDGSLLAVSFEEIVTIWDSQTWELKCTFCQRAGKIRHLCFGRLTCSKYLLGTTDNGILCCWNLLSCSIQWSAKLNVRVMEPDPYSDHVAAVAQSSAGSDLFVFKPSEPRPLYIQKNVSREEVQWGVFVPRDVPESFTSETHQWLNRSQFYFLTKSQSLLTFSTKSPEEKLTPTSKQLLAEESLPTTPFSFILGKHRQQQGAKLTETSENELVQLPLTENIPAITELLHTPAHVLPSASFLCSLFVNSLLLSKETKSAEEVPDDVDMEGNKESDDSDEEYDLTEKDKETNNTDLGEDAIHQLSKSEEKELRKFRKVDYSWLTAL,not soluble
